Results on one substance are retold here after PMC7979870.

The assay addresses ALFA peptide and His8-tagged ZAC orthologue from Oryzias latipes (OlZAC) (Oryzias latipes). Description: negative staining EM with 2D classification; purified OlZAC reconstituted into NAPol amphipol, stained with 2% uranyl acetate, Talos L120C at 120 kV, 2D classification in RELION 3.0.

For “ALFA peptide and His8-tagged ZAC orthologue from Oryzias latipes (OlZAC) (receptor)”, the stoichiometry N amounted to 5.
